Reference: publication PMC4694823, “Tumorigenesis by Meis1 overexpression is accompanied by a change of DNA target-sequence specificity which allows binding to the AP-1 element”

Legend:
[1] = molecular target: T1, Prep1 (pKnox1);Pbx1 (mouse?;mouse?, UniProt O70477;P41778 1-344;1-308, |); assay: EMSA; 15 uL reactions with 5% glycerol, 1 ug poly-dIdC, 1.3 uM ds oligo, 12 ug Meis1/Pbx1 or 7 ug Prep1/Pbx1; 30 min on ice; 5-15% native PAGE, GelRed stain; buffer; conditions: protein: recombinant;recombinant; tags: GST fusion from modified pGEX6p-2rbs; copies: 1;1; blunt
T1 sequence 1: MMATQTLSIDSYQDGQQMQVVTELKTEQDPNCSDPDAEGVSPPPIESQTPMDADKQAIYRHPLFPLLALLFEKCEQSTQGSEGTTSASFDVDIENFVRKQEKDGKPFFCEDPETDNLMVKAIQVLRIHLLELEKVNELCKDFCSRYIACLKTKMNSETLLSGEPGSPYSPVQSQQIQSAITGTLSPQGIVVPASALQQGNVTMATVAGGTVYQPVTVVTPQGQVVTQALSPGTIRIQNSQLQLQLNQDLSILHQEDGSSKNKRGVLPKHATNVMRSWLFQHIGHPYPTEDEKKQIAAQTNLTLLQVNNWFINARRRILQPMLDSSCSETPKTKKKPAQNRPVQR
T1 sequence 2: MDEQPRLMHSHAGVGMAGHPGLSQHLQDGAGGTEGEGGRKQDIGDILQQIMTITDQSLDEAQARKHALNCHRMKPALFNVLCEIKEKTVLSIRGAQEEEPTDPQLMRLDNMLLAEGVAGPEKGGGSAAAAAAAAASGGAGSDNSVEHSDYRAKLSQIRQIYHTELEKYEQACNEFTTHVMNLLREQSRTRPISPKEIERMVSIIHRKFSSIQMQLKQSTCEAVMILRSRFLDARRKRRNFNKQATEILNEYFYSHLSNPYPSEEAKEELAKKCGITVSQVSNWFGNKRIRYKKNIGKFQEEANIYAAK

[2] = molecular target: c-Fos;c-Jun (;, UniProt P01100;P05412 1-380;1-331, |); assay: as above; conditions: protein: commercial;commercial; tags: ;; copies: 1;1; blunt
[3] = molecular target: T2, Meis1;Pbx1 (mouse?;mouse?, UniProt Q60954;P41778 1-390;1-308, |); assay: EMSA; needs higher protein:DNA ratio than OCTA; 15 uL reactions with 5% glycerol, 1 ug poly-dIdC, 1.3 uM ds oligo, 12 ug Meis1/Pbx1 or 7 ug Prep1/Pbx1; 30 min on ice; 5-15% native PAGE, GelRed stain; buffer; conditions: protein: recombinant;recombinant; tags: GST fusion from modified pGEX6p-2rbs; copies: 1;1; blunt
T2 sequence 1: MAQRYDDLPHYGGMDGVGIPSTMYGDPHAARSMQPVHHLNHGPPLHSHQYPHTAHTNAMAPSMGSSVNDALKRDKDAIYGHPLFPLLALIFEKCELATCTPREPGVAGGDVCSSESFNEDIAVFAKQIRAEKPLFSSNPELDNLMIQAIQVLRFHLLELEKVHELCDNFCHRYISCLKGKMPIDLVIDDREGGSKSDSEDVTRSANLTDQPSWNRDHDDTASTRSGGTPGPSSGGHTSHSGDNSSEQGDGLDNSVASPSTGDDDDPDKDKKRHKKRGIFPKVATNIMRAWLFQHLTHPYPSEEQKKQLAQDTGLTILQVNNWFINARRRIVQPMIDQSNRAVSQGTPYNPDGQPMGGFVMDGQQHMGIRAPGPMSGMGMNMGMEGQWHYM
T2 sequence 2: T1 sequence 2

[4] = molecular target: T1, Prep1 (pKnox1);Pbx1; assay: EMSA; binds also at low protein:DNA ratio; AP1 oligo taken as the only printed single AP1 oligo; 15 uL reactions with 5% glycerol, 1 ug poly-dIdC, 1.3 uM ds oligo, 12 ug Meis1/Pbx1 or 7 ug Prep1/Pbx1; 30 min on ice; 5-15% native PAGE, GelRed stain; buffer; conditions: protein: recombinant;recombinant; tags: GST fusion from modified pGEX6p-2rbs; copies: 1;1; blunt
[5] = molecular target: T2, Meis1;Pbx1; assay: EMSA; 15 uL reactions with 5% glycerol, 1 ug poly-dIdC, 1.3 uM ds oligo, 12 ug Meis1/Pbx1 or 7 ug Prep1/Pbx1; 30 min on ice; 5-15% native PAGE, GelRed stain; buffer; conditions: protein: recombinant;recombinant; tags: GST fusion from modified pGEX6p-2rbs; copies: 1;1; blunt
[6] = molecular target: T2, Meis1;Pbx1; assay: EMSA; binds at lower protein:DNA ratio than AP1; 15 uL reactions with 5% glycerol, 1 ug poly-dIdC, 1.3 uM ds oligo, 12 ug Meis1/Pbx1 or 7 ug Prep1/Pbx1; 30 min on ice; 5-15% native PAGE, GelRed stain; buffer; conditions: protein: recombinant;recombinant; tags: GST fusion from modified pGEX6p-2rbs; copies: 1;1; blunt

c-Fos;c-Jun, sequence (P01100 whole entry, chain 1 of 2, the tested form may be a part): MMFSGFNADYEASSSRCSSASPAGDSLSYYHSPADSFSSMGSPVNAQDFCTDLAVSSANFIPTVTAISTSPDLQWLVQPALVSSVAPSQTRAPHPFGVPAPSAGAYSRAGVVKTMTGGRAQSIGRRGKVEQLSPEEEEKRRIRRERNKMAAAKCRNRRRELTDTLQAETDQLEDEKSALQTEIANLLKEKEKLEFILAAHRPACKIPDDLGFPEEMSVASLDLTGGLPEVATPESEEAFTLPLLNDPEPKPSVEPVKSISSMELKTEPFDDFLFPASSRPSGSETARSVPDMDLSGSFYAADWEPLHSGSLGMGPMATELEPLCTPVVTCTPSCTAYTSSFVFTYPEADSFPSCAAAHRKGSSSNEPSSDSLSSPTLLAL
c-Fos;c-Jun, sequence (P05412 whole entry, chain 2 of 2, the tested form may be a part): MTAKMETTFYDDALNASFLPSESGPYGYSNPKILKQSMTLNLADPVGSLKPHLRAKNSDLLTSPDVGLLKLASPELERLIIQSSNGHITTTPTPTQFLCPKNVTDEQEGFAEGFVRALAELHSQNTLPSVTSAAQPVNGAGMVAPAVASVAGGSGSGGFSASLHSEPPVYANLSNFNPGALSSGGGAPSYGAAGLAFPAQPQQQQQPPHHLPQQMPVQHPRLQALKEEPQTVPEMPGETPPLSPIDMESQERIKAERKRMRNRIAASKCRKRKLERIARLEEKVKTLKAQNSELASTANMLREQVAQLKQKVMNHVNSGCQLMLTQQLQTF

B1: AP1+DECA (dsDNA)
DNA 1: TAAAATGCTGAGTCACTGACTGACAGCTTTAGGCT
DNA 2: AGCCTAAAGCTGTCAGTCAGTGACTCAGCATTTTA
- binding result [1]: binds

B2: DECA (dsDNA)
DNA 1: AGCTGACCTCTGAGTGACAGGGTGGAATGTGA
DNA 2: TCACATTCCACCCTGTCACTCAGAGGTCAGCT
- binding result [1]: binds

B3: AP1 (dsDNA)
DNA 1: CATTACCATGAGTCATTGGGCTTGCTC
DNA 2: GAGCAAGCCCAATGACTCATGGTAATG
- binding result [2]: binds
- binding result [3]: binds
- binding result [4]: binds

B4: OCTA+AP1 (dsDNA)
DNA 1: ATTATAGTGATGAATCATCATGACTCATGGTCCAG
DNA 2: CTGGACCATGAGTCATGATGATTCATCACTATAAT
- binding result [5]: binds

B5: OCTA (dsDNA)
DNA 1: GAAAGTGATAAATAATACAAGGAAAGC
DNA 2: GCTTTCCTTGTATTATTTATCACTTTC
- binding result [6]: binds
